Bridge positions count the residues as written; N and C are the ends. Square brackets hold non-standard residues; d marks the D form. Ends that are not written are not given here. alpha‑4‑pentenylAla = alpha-4-pentenyl alanine, stapling residue joined by ring-closing olefin metathesis; Cha = N[C@@H](CC1CCCCC1)C(=O)O; Nle = CCCC[C@H](N)C(=O)O; Aib = CC(C)(N)C(=O)O
Columns and labels:
Mcl-1 [1] = target: T1, Mcl-1 (human, UniProt Q07820 172-327, limits assumed); test: fluorescence anisotropy competition with fluoresceinated Bim 21mer for Mcl-1
T1 construct: Recombinant protein in solution assays; It was biotinylated in the on-bead screens; also called human Mcl-1; BioMcl-1 (biotinylated, in the bead screens)
From the text: The standard errors reported are over three experiments.
Position 2e is usually conserved as small (alanine, glycine, serine) in natural BH3 sequences.

murine Mcl-1 = murine Mcl-1 (murine, UniProt P97287 1-331); test: cell-based or functional assay
Mcl-1 [2] = target: T1, Mcl-1; test: biolayer interferometry, biotinylated peptide on streptavidin probe
From the text: We used biolayer interferometry to measure the kinetics of binding of stapled peptides to Mcl-1 (FIG. 1(b)). We generated biotinylated stapled peptides and attached these to a streptavidin-modified probe surface.

T1 sequence (Q07820 172-327 limits assumed): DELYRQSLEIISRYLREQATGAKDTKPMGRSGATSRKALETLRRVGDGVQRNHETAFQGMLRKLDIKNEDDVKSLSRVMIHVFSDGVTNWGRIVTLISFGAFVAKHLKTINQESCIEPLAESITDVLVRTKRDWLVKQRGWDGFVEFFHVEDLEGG
murine Mcl-1, sequence (P97287 whole entry): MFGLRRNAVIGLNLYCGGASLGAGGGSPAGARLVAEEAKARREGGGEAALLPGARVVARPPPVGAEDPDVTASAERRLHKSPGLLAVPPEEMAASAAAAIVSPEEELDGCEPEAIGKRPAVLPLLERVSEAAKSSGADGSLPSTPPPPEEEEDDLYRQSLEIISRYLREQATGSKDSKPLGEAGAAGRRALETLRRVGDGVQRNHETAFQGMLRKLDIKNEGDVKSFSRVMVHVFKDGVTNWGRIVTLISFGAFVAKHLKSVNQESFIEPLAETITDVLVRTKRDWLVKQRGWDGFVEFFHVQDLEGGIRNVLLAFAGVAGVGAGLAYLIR

| Binder | IC50 (Mcl-1 [1]) [nM] | BH3 profiling (mitochondrial membrane integrity, JC1 dye) in Mcl-1/Myc 2640 cells, EC50 (murine Mcl-1) [nM] | Kd (Mcl-1 [2]) [nM] |
| --- | --- | --- | --- |
| IW[Nle]TQGLRRLGDEI[alpha‑4‑pentenylAla]AYY[alpha‑4‑pentenylAla]RR (staple 15-19, Truncated, stapled variant of MS1, usually printed 'Mld'; also called Mld) [M1d] | 350 |  |  |
| IW[Nle][Aib]QGLRRLGDEI[alpha‑4‑pentenylAla]AYY[alpha‑4‑pentenylAla]RR (staple 15-19, Stapled peptide IWBAibQGLRRLGDEIXAYYXRR) [M2d] | 106 |  |  |
| IW[Nle][Aib]QG[Cha]RRLGDEI[alpha‑4‑pentenylAla]AYY[alpha‑4‑pentenylAla]RR (staple 15-19, Stapled peptide IWBAibQGChaRRLGDEIXAYYXRR) [M3d] | 72 | 30 |  |
| IW[Nle][Aib]QG[Cha]RRLGDEI[alpha‑4‑pentenylAla]AYY[alpha‑4‑pentenylAla]RR (staple 15-19; also: biotinylated, site and linker not given here, also called M3d (biotinylated stapled peptide)) [biotinylated M3d] |  |  | 5 |

— patent US20240092849A1 (MIT, published 2024)
